Data published in US20020058637.

Columns and labels:
[1] = tested on: phosphorylated peptide p-K2
[2] = target: tau-protein extracted from bovine brain followed by purification (not phosphorylated by TPK-I) (UniProt P29172)
[3] = tested on: Peptide K2

Sequence of tau-protein extracted from bovine brain followed by purification (not phosphorylated by TPK-I) (P29172 2-448): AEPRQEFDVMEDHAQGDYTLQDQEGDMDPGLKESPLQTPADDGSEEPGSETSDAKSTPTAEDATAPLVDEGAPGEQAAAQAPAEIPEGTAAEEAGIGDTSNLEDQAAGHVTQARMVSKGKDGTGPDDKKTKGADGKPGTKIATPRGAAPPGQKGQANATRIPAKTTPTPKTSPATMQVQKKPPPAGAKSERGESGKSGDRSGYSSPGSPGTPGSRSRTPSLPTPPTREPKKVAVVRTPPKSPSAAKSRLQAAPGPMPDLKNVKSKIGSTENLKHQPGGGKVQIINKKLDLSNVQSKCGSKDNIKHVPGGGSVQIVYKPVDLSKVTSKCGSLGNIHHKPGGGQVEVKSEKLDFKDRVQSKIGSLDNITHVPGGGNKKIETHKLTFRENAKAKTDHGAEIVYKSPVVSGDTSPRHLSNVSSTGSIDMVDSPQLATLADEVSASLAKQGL

Q: For “recombinant human TPK-I expressed in Escherichia coli BL21(DE3) from pET3C/TPKI (partially purified)”, which phosphorylation of peptide [1] is on record?
A: the phosphorylation of p-Ka proceeded

Q: What about the “phosphoric acid incorporated into tau-protein (phosphorylating method I)” value [2] of the same substance?
A: 1.2 moles of phosphoric acid was incorporated into one molecule of tau-protein

Q: What about the phosphorylation of peptide [3] of the same substance?
A: that of K2 hardly proceeded

Q: With “recombinant human-originated tau-protein kinase I expressed in Sf9 insect cells (partially purified)” as the substance, how does the “phosphorylation of peptide (phosphorylating method I)” value [1] read?
A: the progress of phosphorylation of p-K2 was clearly noted

Q: What about the “amount of phosphoric acid incorporated in tau-protein (phosphorylating method I, 32P)” value [2] of the same substance?
A: incorporation of tau-protein into phosphoric acid was confirmed

Q: And the “initial speed of phosphorylation of peptide (phosphorylating method I)” value [3]?
A: phosphorylation of K2 was slow and its initial speed was about one-tenth of that of p-K2

Q: “tau-protein kinase II (TPK-II) purified from bovine brain microtubule” was tested. Which “phosphorylation of peptide (phosphorylating method II)” value [3] did it give?
A: phosphorylated peptide (hereinafter, abbreviated as "p-K2") was obtained
